Assay results from US20220324969A1 (MYTHIC THERAPEUTICS, published 2022).
Changes are numbered by the printed parent chain. Names and notes keep the numbering of the source.

B1: MYT1213 (antibody, V domains shown)
VH: QVQLQQPGAEVVKPGASVKMSCKASHYTFTSYYIHWIKQTPGQGLEWVGVIYPGNDDISYNQKFQGKATLTADKSSTTAYMQLSSLTSEDSAVYYCAREVRLRYFDVWGQGTTVTVSS
VL: EIVLTQSPGSLAVSPGERVTMSCKSSQSVFFSSSQKNYLAWYQQIPGQSPRLLIYWASTRESGVPDRFTGSGSGTDFTLTISSVQPEDLAIYYCHQYLSSRTFGQGTKLEIK
notes: IgG; IMGN779 VH variant #1 (G26H)
B2: MYT1234 (antibody, V domains shown)
VH: B1 VH with H26G, N61H
VL: B1 VL
notes: IgG; IMGN779 VH variant #22 (N61H)
B3: MYT1224 (antibody, V domains shown)
VH: B1 VH with H26G, I51H
VL: B1 VL
notes: IgG; IMGN779 VH variant #12 (I51H)
B4: MYT1235 (antibody, V domains shown)
VH: B1 VH with H26G, Q62H
VL: B1 VL
notes: IgG; IMGN779 VH variant #23 (Q62H)
B5: MYT1216 (antibody, V domains shown)
VH: B1 VH with H26G, F29H
VL: B1 VL
notes: IgG; IMGN779 VH variant #4 (F29H)
B6: MYT1243 (antibody, V domains shown)
VH: B1 VH with H26G, V100H
VL: B1 VL
notes: IgG; IMGN779 VH variant #31 (V100H)
B7: MYT1214 (antibody, V domains shown)
VH: B1 VH with H26G, Y27H
VL: B1 VL
notes: IgG; IMGN779 VH variant #2 (Y27H)
B8: MYT1215 (antibody, V domains shown)
VH: B1 VH with H26G, T28H
VL: B1 VL
notes: IgG; IMGN779 VH variant #3 (T28H)
B9: MYT1225 (antibody, V domains shown)
VH: B1 VH with H26G, Y52H
VL: B1 VL
notes: IgG; IMGN779 VH variant #13 (Y52H)
B10: MYT1247 (antibody, V domains shown)
VH: B1 VH with H26G, Y104H
VL: B1 VL
notes: IgG; IMGN779 VH variant #35 (Y104H)
B11: MYT1227 (antibody, V domains shown)
VH: B1 VH with H26G, G54H
VL: B1 VL
notes: IgG; IMGN779 VH variant #15 (G54H)
B12: MYT1231 (antibody, V domains shown)
VH: B1 VH with H26G, I58H
VL: B1 VL
notes: IgG; IMGN779 VH variant #19 (I58H)
B13: MYT1236 (antibody, V domains shown)
VH: B1 VH with H26G, K63H
VL: B1 VL
notes: IgG; IMGN779 VH variant #24 (K63H)
B14: MYT1226 (antibody, V domains shown)
VH: B1 VH with H26G, P53H
VL: B1 VL
notes: IgG; IMGN779 VH variant #14 (P53H)
B15: MYT1218 (antibody, V domains shown)
VH: B1 VH with H26G, S31H
VL: B1 VL
notes: IgG; IMGN779 VH variant #6 (S31H)
B16: MYT1248 (antibody, V domains shown)
VH: B1 VH with H26G, F105H
VL: B1 VL
notes: IgG; IMGN779 VH variant #36 (F105H)
B17: MYT1237 (antibody, V domains shown)
VH: B1 VH with H26G, F64H
VL: B1 VL
notes: IgG; IMGN779 VH variant #25 (F64H)
B18: MYT1250 (antibody, V domains shown)
VH: B1 VH with H26G, V107H
VL: B1 VL
notes: IgG; IMGN779 VH variant #38 (V107H)
B19: MYT1241 (antibody, V domains shown)
VH: B1 VH with H26G, R98H
VL: B1 VL
notes: IgG; IMGN779 VH variant #29 (R98H)
B20: MYT1217 (antibody, V domains shown)
VH: B1 VH with H26G, T30H
VL: B1 VL
notes: IgG; IMGN779 VH variant #5 (T30H)
B21: MYT1246 (antibody, V domains shown)
VH: B1 VH with H26G, R103H
VL: B1 VL
notes: IgG; IMGN779 VH variant #34 (R103H)
B22: MYT1244 (antibody, V domains shown)
VH: B1 VH with H26G, R101H
VL: B1 VL
notes: IgG; IMGN779 VH variant #32 (R101H)
B23: MYT1239 (antibody, V domains shown)
VH: B1 VH with H26G, G66H
VL: B1 VL
notes: IgG; IMGN779 VH variant #27 (G66H)
B24: MYT1220 (antibody, V domains shown)
VH: B1 VH with H26G, Y33H
VL: B1 VL
notes: IgG; IMGN779 VH variant #8 (Y33H)
B25: MYT2617 (antibody, V domains shown)
VH: B1 VH with H26G
VL: B1 VL with K24H
notes: IgG; IMGN779 VL variant #1 (K24H)
B26: MYT1230 (antibody, V domains shown)
VH: B1 VH with H26G, D57H
VL: B1 VL
notes: IgG; IMGN779 VH variant #18 (D57H)
B27: MYT1221 (antibody, V domains shown)
VH: B1 VH with H26G, I34H
VL: B1 VL
notes: IgG; IMGN779 VH variant #9 (I34H)
B28: MYT1223 (antibody, V domains shown)
VH: B1 VH with H26G, V50H
VL: B1 VL
notes: IgG; IMGN779 VH variant #11 (V50H)
B29: MYT1238 (antibody, V domains shown)
VH: B1 VH with H26G, Q65H
VL: B1 VL
notes: IgG; IMGN779 VH variant #26 (Q65H)
B30: MYT1219 (antibody, V domains shown)
VH: B1 VH with H26G, Y32H
VL: B1 VL
notes: IgG; IMGN779 VH variant #7 (Y32H)
B31: MYT1233 (antibody, V domains shown)
VH: B1 VH with H26G, Y60H
VL: B1 VL
notes: IgG; IMGN779 VH variant #21 (Y60H)
B32: MYT1232 (antibody, V domains shown)
VH: B1 VH with H26G, S59H
VL: B1 VL
notes: IgG; IMGN779 VH variant #20 (S59H)
B33: MYT1228 (antibody, V domains shown)
VH: B1 VH with H26G, N55H
VL: B1 VL
notes: IgG; IMGN779 VH variant #16 (N55H)
B34: MYT2618 (antibody, V domains shown)
VH: B1 VH with H26G
VL: B1 VL with S25H
notes: IgG; IMGN779 VL variant #2 (S25H)
B35: MYT1245 (antibody, V domains shown)
VH: B1 VH with H26G, L102H
VL: B1 VL
notes: IgG; IMGN779 VH variant #33 (L102H)
B36: MYT1229 (antibody, V domains shown)
VH: B1 VH with H26G, D56H
VL: B1 VL
notes: IgG; IMGN779 VH variant #17 (D56H)
B37: MYT1222 (antibody, V domains shown)
VH: B1 VH with H26G, H35A
VL: B1 VL
notes: IgG; IMGN779 VH variant #10 (H35A)
B38: MYT1612 (antibody, V domains shown)
VH: EVQLVQSGAEVKKPGSSVKVSCKASGYTITDSNIHWVRQAPGQSLEWIGYIYPYNGGTDYNQKFKNRATLTVDNPTNTAYMELSSLRSEDTDFYYCVNGNPWLAYWGQGTLVTVSS
VL: DIQLTQSPSTLSASVGDRVTITCRASESLDNYGIRFLTWFQQKPGKAPKLLMYAASNQGSGVPSRFSGSGSGTEFTLTISSLQPDDFATYYCHQTKEVPWSFGQGTKVEVK
notes: IgG; gemtuzumab VL variant #23 (Q93H)
B39: MYT1620 (antibody, V domains shown)
VH: B38 VH
VL: B38 VL with H93Q, S101H
notes: IgG; gemtuzumab VL variant #31 (S101H)
B40: MYT1616 (antibody, V domains shown)
VH: B38 VH
VL: B38 VL with H93Q, E97H
notes: IgG; gemtuzumab VL variant #27 (E97H)
B41: MYT1615 (antibody, V domains shown)
VH: B38 VH
VL: B38 VL with H93Q, K96H
notes: IgG; gemtuzumab VL variant #26 (K96H)
B42: MYT1613 (antibody, V domains shown)
VH: B38 VH
VL: B38 VL with H93Q, Q94H
notes: IgG; gemtuzumab VL variant #24 (Q94H)
B43: MYT1619 (antibody, V domains shown)
VH: B38 VH
VL: B38 VL with H93Q, W100H
notes: IgG; gemtuzumab VL variant #30 (W100H)
B44: MYT1617 (antibody, V domains shown)
VH: B38 VH
VL: B38 VL with H93Q, V98H
notes: IgG; gemtuzumab VL variant #28 (V98H)
B45: MYT1614 (antibody, V domains shown)
VH: B38 VH
VL: B38 VL with H93Q, T95H
notes: IgG; gemtuzumab VL variant #25 (T95H)

biological target: CD33 (Sino Biological, Cat #12238-H08H) (UniProt P20138 18-259); assay: BLI, IgG captured on anti-human Fc sensor, 50 nM CD33, pH 7.4 vs pH 5.4
Sequence (P20138 18-259 limits assumed): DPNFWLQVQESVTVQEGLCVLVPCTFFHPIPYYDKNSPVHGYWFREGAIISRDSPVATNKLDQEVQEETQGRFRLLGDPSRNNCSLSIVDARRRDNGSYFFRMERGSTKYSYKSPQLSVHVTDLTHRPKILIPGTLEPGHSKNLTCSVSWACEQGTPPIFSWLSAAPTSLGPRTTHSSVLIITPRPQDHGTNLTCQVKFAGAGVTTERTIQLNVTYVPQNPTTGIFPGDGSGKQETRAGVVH

binding result | Binder
binds | B1
binds | B2
binds | B3
binds | B4
binds | B5
binds | B6
binds | B7
binds | B8
binds | B9
binds | B10
binds | B11
binds | B12
binds | B13
binds | B14
binds | B15
binds | B16
binds | B17
binds | B18
binds | B19
binds | B20
binds | B21
binds | B22
binds | B23

binding result | Binder
binds | B24
binds | B25
binds | B26
binds | B27
binds | B28
binds | B29
binds | B30
binds | B31
binds | B32
binds | B33
binds | B34
binds | B35
binds | B36
binds | B37
binds | B38
binds | B39
binds | B40
binds | B41
binds | B42
binds | B43
binds | B44
binds | B45
